Measured values: patent US20240084003A1 (SIMCERE ZAIMING PHARMACEUTICAL, published 2024)

T1: human CD22, endogenous on Raji cells (human, UniProt P20273 20-847)
T1 construct: whole, on cells; Endogenous protein of the Raji cell line
T1 sequence (looked up): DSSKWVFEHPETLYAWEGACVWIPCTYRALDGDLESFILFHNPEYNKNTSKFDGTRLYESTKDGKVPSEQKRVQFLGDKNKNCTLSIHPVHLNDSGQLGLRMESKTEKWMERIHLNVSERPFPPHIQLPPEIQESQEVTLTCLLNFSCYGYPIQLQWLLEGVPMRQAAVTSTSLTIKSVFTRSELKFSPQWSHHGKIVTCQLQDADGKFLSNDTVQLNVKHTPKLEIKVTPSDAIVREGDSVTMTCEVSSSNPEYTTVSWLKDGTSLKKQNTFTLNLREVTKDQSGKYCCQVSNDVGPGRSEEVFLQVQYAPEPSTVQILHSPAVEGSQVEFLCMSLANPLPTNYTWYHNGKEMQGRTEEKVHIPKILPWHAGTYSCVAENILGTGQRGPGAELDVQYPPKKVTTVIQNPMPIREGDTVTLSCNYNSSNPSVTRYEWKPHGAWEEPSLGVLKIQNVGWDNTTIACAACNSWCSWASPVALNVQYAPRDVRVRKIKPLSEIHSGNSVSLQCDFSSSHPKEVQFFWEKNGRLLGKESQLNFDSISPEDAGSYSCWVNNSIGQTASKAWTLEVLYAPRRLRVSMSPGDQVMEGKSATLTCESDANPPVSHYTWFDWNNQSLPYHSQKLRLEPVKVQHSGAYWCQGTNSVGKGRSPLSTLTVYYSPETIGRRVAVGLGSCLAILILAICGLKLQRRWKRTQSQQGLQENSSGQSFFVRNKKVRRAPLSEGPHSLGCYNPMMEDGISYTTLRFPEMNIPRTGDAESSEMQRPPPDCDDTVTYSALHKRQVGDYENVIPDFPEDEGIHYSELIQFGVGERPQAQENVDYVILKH

T2: murine CD22 protein (ACROBiosystems, SI2-M52Ha) (murine, UniProt P35329 22-708)
T2 construct: extracellular domain; also called murine CD22-ECD; murine CD22-ECD-His
T2 sequence (looked up): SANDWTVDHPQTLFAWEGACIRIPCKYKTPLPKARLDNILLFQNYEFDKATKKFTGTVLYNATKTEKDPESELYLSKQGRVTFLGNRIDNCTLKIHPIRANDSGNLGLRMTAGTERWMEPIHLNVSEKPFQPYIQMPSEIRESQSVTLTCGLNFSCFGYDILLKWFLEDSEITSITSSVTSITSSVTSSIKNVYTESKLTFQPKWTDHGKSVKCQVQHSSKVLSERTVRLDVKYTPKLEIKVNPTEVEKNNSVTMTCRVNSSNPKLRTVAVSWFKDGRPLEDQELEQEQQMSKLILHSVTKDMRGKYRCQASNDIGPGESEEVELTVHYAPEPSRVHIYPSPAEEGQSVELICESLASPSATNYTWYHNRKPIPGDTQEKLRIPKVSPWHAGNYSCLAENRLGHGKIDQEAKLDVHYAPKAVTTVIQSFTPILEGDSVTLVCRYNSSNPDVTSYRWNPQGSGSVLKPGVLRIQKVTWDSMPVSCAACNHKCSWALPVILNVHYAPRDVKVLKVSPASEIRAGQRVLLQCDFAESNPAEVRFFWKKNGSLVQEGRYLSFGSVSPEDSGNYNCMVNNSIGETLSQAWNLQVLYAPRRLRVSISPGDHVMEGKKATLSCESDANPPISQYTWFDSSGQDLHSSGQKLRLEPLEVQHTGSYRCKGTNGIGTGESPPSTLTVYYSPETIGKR

T3: human CD22, full length, on CHO-K1-human CD22 2C4 cells (human, UniProt P20273 20-847)
T3 construct: Full-length human CD22 (NCBI NP_001762.2) stably transfected into CHO-K1
T3 sequence: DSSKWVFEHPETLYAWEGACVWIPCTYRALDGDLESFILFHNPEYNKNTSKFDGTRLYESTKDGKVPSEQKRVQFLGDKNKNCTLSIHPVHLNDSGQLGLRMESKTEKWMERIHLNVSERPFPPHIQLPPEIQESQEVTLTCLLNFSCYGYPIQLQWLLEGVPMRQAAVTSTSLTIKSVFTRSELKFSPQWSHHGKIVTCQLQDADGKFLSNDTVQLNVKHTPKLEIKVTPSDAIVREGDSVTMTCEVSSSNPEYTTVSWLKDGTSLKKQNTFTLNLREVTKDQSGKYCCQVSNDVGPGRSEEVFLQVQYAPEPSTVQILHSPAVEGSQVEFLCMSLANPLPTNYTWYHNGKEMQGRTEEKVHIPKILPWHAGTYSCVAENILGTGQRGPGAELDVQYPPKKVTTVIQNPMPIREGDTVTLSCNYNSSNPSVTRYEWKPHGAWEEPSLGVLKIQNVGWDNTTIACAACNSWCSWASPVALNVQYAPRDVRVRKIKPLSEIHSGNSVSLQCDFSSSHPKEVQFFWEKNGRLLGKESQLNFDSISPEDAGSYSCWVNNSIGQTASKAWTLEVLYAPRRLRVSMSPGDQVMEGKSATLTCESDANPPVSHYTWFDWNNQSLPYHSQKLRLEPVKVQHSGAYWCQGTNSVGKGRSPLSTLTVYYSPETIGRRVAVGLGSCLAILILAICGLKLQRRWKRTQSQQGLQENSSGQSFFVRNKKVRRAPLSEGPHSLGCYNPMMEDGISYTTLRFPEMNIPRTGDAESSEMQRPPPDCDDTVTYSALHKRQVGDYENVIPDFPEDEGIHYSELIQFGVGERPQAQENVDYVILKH

B1: F1.257.3 human-murine chimeric antibody (antibody, human IgG1, kappa, V domains shown)
VH: QVQLQQSGPELARPGASVKLSCKASGYTFTSYGISWVKQRTGQDLEWIGEIYPKLGTTYYNEKFKDKATLTTDRSSSTAYMALRSLTSEDSAVYFCACPHYYATRGGDYWGQGTTLTVSS
VL: EIVLTQSPATLSVTPGDSVTFSCRASQSISNHLHWYQQKSHESPRLLIRYASQSISGIPSRFSGSGSGTDFTLSLSSVETEDFGVYFCQQSHSWPYTFGGGTKLEIAR
notes: Chimeric, human IgG1 / kappa; VL tied by name
B2: F1.161.7 (antibody, human IgG1, kappa, V domains shown)
VH: QVQLQQPGAELVKPGASVKMSCKASGYTFTSYWISWVKQRPGQGLEWIGDIYPGTGSSNYNEKFKSKATLTVDTSSSTAYMQLSSLTSEDSAVYYCARLKFEGIGYWGQGTTLTVSS
VL: QIVLTQSPAIMSASLGEEITLTCSASSSVSYMHWFQQKSGTSPKLLIYSISNLASGVPSRFSGSGSGTFYSLTISSVEAEDAADYYCHQWSSYPWTFGGGTKLEIKR
notes: human-murine chimeric IgG1 kappa
B3: F1.161.7 human-murine chimeric antibody (antibody, human IgG1, kappa, V domains shown)
VH: QVQLQQPGAELVKPGASVKMSCKASGYTFTSYWISWVKQRPGQGLEWIGDIYPGTGSSNYNEKFKSKATLTVDTSSSTAYMQLSSLTSEDSAVYYCARLKFEGIGYWGQGTTLTVSS
VL: QIVLTQSPAIMSASLGEEITLTCSASSSVSYMHWFQQKSGTSPKLLIYSISNLASGVPSRFSGSGSGTFYSLTISSVEAEDAADYYCHQWSSYPWTFGGGTKLEIKR
notes: Chimeric, human IgG1 / kappa
B4: F1.17.1 human-murine chimeric antibody (antibody, human IgG1, kappa, V domains shown)
VH: QVQLKESGPGLVAPSQSLSITCTVSGFSLSRYTVHWVRQPPGKGLEWLGMIWGGGSTDYNSALKSRLSISKDNSKSQVFLKMNSLQTDDTAMYYCARPHDFDAGGFAYWGQGTLVTVSA
VL: QIVLTQSPAILSTSPGEKVTMTCSASSRVNYMYWYQQKPGSSPRLLIYDTSNLASGVPVRFSGSGSGTSYSLTISRMEAEDAATYYCQQWTSYPLTFGAGTKLELKR
notes: Chimeric, human IgG1 / kappa
B5: F1.62.10 human-murine chimeric antibody (antibody, human IgG1, kappa, V domains shown)
VH: QVQLQQSGPELVKPGASVKISCKASGYEFSSIWMNWVKQRPGEGLEWIGRIFPGDGEINYNEKFKGKATLTADRSSTTAYMQLSSLTSEDSAVYFCAGWRIYYGTYGAMDYWGQGTSVTVSS
VL: DIQMTQITSSLSASLGDRVTISCRASQDIGNYLNWYQQKPDGTVKLLIYYTSRLHSGVPSRFSGSGSRTDYSLTISNLQQEDIATYFCQQGNTLPWTFGGGTKLEIKR
notes: Chimeric, human IgG1 / kappa
B6: F2.127.11 (antibody, human IgG1, lambda, V domains shown)
VH: QVTLKESGPGILQPSQTLSLTCSFSGFSLSTFGMGVGWIRQPSGKGLEWLAHIWWDDDKHYNPALKSRLTISKDTSRNQVFLKIANVDTADGATYFCARDNWVSSLDYWGQGTSVIVSS
VL: QPVITQSSSASFSLGASAELTCTLSSQHSTYTIEWYQQQPLKPPKYVMGLKKDGSHSTGDGIPDRFSGSSSGADRYLSISNIQPEDEAIYICGVSDTIKEQFVYVFGGGTKVTVLG
notes: human-murine chimeric IgG1 lambda; VL name legible

How the values were obtained:
[1] = biological target: T1, human CD22, endogenous on Raji cells; test: FACS, Raji cells
How it was run: (§1)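 Raji cells and CHO-K1 cells expressing human CD22 were blocked in PBS + 2% BSA at 2×10⁶ cells/ml and incubated with chimeric antibody for 2 h on ice. Bound antibody was detected with an Alexa Fluor 488 secondary for 1 h on ice and read by flow cytometry as MFI. EC50 came from curve fitting.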

[2] = biological target: T2, murine CD22 protein (ACROBiosystems, …); test: ELISA, coated murine CD22, 100 nM Ab
How it was run: (§2)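 Plates were coated overnight at 4° C with 2 μg/mL CD22 protein in PBS and blocked with PBS + 2% BSA. Chimeric antibodies were incubated for 2 h at 37° C, then HRP-labelled secondary for 2 h at 37° C. Bound antibody was read by TMB colour development (30 min, RT) stopped with 1.0 N HCl.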

[3] = biological target: T2, murine CD22 protein (ACROBiosystems, …); test: ELISA, coated murine CD22, 0.01 nM Ab
How it was run: as §2

[4] = biological target: T2, murine CD22 protein (ACROBiosystems, …); test: ELISA, coated murine CD22, 0.001 nM Ab
How it was run: as §2

[5] = biological target: T2, murine CD22 protein (ACROBiosystems, …); test: ELISA, coated murine CD22, 0.1 nM Ab
How it was run: as §2

[6] = biological target: T2, murine CD22 protein (ACROBiosystems, …); test: ELISA, coated murine CD22, 0.0001 nM Ab
How it was run: as §2

[7] = biological target: T3, human CD22, full length, on …; test: FACS, CHO-K1-human CD22 2C4 cells
How it was run: as §1

[8] = biological target: T2, murine CD22 protein (ACROBiosystems, …); test: ELISA, coated murine CD22, 0.00001 nM Ab
How it was run: as §2

[9] = biological target: T2, murine CD22 protein (ACROBiosystems, …); test: ELISA, coated murine CD22, 10 nM Ab
How it was run: as §2

[10] = biological target: T4, CD22 on cynomolgus monkey peripheral blood B cells (cynomolgus monkey (Macaca fascicularis)); test: FACS, cynomolgus PBMC, CD20+ B cells, antibody 10 nM
T4 construct: whole, on cells; also called cynomolgus monkey B cells
From the text: (§3) The monkey peripheral blood mononuclear cells were extracted from fresh cynomolgus monkey peripheral blood (purchased from Shanghai Medicilon Inc.) according to the instructions of Ficoll-Paque Plus (purchased from GE Healthcare, catalog number: 171440-02). After the cell suspension was centrifuged, the cells were resuspended in PBS containing 1% BSA, and then the cells were counted. At the same time, the murine antibody Brilliant Violet 605 anti-human CD20 (catalog number: 302334, purchased from Biolegend) with monkey CD20 cross-binding activity and the chimeric antibodies to be tested (1 nM, 10 nM and 100 nM) were added and incubated at room temperature for 1 hour. After washing the cells three times, APC-labeled secondary antibody anti-human IgG Fc (catalog number: 409306, purchased from Biolegend) was added. After incubation at room temperature in the dark for 30 minutes, the cells were washed 5 times, gently resuspended with PBS containing 1% BSA, and detected and analyzed by FACS (FACS Canto™, purchased from BD Company). Wherein CD20 was used as a marker of B cells, and the CD20-positive B cell population was gated, the proportion of chimeric antibody positive cells was analyzed, and the proportion of chimeric antibody positive cell population to B cell population was calculated after treatments with the chimeric antibodies at the concentrations of 100 nM, 10 nM and 1 nM, respectively. The scatter plot of double-stained cells by Brilliant Violet 605-labeled CD20 and APC secondary antibody indirectly labeled chimeric antibody is shown in FIG. 10A-FIG. 10B (under the condition of 1 nM of chimeric antibody concentration).

[11] = biological target: T4, CD22 on cynomolgus monkey peripheral …; test: FACS, cynomolgus PBMC, CD20+ B cells, antibody 1 nM
From the text: as §3

[12] = biological target: T4, CD22 on cynomolgus monkey peripheral …; test: FACS, cynomolgus PBMC, CD20+ B cells, antibody 100 nM
From the text: as §3

Binder	EC50 [1]	Maximum mean fluorescence intensity [1]	OD450 [2]	OD450 [3]	OD450 [4]	OD450 [5]	OD450 [6]	EC50 [7]	Maximum mean fluorescence intensity [7]	OD450 [8]	OD450 [9]	Proportion of chimeric antibody positive cells to B cells (%) [10]	Proportion of chimeric antibody positive cells to B cells (%) [11]	Proportion of chimeric antibody positive cells to B cells (%) [12]
B1	270 pM	29300 MFI	0.2 OD450	0.05 OD450	0.05 OD450	0.05 OD450	0.05 OD450	680 pM	46600 MFI	0.06 OD450	0.07 OD450	–	–	–
B2	–	–	–	–	–	–	–	–	–	–	–	21%	16%	29%
B3	220 pM	27900 MFI	0.08 OD450	0.05 OD450	0.05 OD450	0.05 OD450	0.05 OD450	590 pM	37100 MFI	0.06 OD450	0.06 OD450	–	–	–
B4	170 pM	28500 MFI	0.07 OD450	0.05 OD450	0.05 OD450	0.05 OD450	0.05 OD450	440 pM	36900 MFI	0.06 OD450	0.06 OD450	–	–	–
B5	1100 pM	25600 MFI	0.08 OD450	0.05 OD450	0.05 OD450	0.05 OD450	0.06 OD450	1310 pM	29200 MFI	0.07 OD450	0.06 OD450	–	–	–
B6	–	–	–	–	–	–	–	–	–	–	–	21%	20%	22%
